Patent US20140072613A1, “Compositions and Methods for Treating Cutaneous Scarring” (priority 2012, published 2014)

Assays:
Experiment in all cases: cell-based or functional assay
Flt3(D835Y)(h) (human) = molecular target: T1, Flt3(D835Y)(h) (human) (UniProt P36888)
T1 sequence (looked up): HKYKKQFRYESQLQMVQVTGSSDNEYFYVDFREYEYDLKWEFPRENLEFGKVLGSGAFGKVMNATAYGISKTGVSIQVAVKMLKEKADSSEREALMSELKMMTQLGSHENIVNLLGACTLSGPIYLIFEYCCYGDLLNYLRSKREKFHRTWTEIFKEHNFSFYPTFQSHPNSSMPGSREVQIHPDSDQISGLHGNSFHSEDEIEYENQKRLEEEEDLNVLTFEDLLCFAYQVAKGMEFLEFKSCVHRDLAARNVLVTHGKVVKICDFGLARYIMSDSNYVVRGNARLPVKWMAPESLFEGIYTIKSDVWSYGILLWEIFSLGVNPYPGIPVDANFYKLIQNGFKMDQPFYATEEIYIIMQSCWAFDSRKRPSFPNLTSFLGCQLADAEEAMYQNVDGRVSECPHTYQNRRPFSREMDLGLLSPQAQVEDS

MSK1(h) (human) = MSK1(h) (human) (UniProt O75582)
GSK3α(h) (human) = GSK3α(h) (human) (UniProt P49840)
Tec(h)activated (human) = molecular target: T2, Tec(h)activated (human) (UniProt P42680)
T2 sequence (looked up): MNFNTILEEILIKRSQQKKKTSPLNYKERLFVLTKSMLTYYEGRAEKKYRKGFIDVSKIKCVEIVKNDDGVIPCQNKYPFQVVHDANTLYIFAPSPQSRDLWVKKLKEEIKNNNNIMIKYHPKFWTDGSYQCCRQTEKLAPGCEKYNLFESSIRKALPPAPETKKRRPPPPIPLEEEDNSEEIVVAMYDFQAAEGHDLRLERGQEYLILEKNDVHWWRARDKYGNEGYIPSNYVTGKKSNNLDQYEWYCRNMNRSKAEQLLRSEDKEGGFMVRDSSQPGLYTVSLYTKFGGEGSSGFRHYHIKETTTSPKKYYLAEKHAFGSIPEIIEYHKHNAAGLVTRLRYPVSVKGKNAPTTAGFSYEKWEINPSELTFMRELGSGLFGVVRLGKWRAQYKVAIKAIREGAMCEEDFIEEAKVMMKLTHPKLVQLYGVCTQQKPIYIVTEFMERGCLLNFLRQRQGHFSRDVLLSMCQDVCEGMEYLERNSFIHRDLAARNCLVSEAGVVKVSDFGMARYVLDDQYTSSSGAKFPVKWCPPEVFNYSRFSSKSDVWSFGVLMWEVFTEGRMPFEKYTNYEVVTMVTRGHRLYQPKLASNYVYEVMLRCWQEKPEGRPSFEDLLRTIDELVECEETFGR

PAK4(h) (human) = PAK4(h) (human) (UniProt O96013)
6SK3β(h) (human) = 6SK3β(h) (human) (UniProt P49841)
MKK6(h) (human) = MKK6(h) (human) (UniProt P52564)
PKBγ(h) (human) = PKBγ(h) (human) (UniProt Q9Y243)
Met(Y1248D)(h) (human) = Met(Y1248D)(h) (human) (UniProt P08581)
TLK2(h) (human) = TLK2(h) (human) (UniProt Q86UE8)
Rsk3(h) (human) = Rsk3(h) (human) (UniProt Q15349)
PKGη(h) (human) = molecular target: PKGη(h) (human)
SGK(h) (human) = SGK(h) (human) (UniProt O00141)
cSRC(h) (human) = cSRC(h) (human) (UniProt P12931)
Axl(h) (human) = molecular target: T3, Axl(h) (human) (UniProt P30530)
T3 sequence (looked up): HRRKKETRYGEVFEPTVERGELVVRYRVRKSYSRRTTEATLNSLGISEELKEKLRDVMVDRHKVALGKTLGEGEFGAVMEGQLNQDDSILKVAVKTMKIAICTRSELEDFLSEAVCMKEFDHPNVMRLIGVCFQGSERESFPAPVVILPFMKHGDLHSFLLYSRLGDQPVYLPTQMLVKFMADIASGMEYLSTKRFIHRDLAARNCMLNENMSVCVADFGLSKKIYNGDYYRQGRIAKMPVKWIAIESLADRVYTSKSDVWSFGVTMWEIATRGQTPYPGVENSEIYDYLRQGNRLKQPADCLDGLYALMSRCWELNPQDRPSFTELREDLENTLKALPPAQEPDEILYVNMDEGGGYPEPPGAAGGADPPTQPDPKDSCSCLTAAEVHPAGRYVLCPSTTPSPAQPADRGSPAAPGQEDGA

LKB1(h) (human) = molecular target: T4, LKB1(h) (human) (UniProt Q15831)
T4 sequence (looked up): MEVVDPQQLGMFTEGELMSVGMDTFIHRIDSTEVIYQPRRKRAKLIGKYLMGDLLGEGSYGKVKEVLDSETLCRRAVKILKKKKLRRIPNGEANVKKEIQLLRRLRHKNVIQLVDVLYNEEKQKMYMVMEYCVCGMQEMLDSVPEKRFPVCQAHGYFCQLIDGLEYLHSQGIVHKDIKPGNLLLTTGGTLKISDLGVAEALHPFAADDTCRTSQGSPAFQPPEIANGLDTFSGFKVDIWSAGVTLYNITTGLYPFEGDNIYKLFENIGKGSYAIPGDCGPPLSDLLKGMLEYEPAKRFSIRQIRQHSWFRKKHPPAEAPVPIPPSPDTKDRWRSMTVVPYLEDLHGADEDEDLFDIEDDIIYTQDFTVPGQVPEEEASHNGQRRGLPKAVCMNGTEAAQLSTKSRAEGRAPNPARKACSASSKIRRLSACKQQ

Chain of GSK3α(h) (human) (P49840 whole entry): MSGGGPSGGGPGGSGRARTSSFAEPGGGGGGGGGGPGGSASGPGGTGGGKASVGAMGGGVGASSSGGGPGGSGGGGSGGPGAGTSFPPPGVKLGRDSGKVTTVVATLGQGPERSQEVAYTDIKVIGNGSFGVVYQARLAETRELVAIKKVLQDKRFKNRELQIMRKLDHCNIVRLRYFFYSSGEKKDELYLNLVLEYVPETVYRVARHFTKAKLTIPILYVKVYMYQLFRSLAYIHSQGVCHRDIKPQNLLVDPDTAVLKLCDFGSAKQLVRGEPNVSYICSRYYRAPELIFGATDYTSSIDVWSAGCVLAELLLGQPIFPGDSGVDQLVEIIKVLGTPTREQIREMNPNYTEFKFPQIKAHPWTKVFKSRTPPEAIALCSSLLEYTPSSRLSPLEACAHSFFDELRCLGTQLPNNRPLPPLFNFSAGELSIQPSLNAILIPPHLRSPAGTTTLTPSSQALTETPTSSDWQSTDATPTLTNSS
Chain of PKBγ(h) (human) (Q9Y243 whole entry): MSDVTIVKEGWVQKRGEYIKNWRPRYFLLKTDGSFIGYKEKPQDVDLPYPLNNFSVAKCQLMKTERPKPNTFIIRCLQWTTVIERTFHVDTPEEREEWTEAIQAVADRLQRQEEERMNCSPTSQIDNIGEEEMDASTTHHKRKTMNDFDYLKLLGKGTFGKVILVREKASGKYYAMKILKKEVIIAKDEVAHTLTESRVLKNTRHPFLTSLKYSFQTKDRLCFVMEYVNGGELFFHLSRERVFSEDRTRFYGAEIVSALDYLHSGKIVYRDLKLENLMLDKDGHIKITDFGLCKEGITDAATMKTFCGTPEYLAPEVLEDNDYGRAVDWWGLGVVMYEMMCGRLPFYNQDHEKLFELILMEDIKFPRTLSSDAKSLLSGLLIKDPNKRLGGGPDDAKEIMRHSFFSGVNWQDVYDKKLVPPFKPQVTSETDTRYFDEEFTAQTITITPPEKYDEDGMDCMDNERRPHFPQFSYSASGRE
Chain of PAK4(h) (human) (O96013 whole entry): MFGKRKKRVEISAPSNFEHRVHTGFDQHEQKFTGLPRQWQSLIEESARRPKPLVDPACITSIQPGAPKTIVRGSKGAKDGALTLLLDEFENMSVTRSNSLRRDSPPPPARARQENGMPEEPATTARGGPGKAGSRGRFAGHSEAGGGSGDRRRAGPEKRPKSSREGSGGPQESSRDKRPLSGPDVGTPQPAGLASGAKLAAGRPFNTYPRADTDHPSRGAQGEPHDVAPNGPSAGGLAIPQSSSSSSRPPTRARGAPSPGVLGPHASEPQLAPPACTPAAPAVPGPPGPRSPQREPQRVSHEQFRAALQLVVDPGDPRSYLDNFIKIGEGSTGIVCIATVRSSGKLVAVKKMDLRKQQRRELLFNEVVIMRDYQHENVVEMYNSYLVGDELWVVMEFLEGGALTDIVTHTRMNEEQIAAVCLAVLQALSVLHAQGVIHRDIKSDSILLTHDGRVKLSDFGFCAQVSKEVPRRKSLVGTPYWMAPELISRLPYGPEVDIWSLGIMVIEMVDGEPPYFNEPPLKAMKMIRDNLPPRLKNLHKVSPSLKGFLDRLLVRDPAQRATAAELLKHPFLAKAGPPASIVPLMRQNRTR
Chain of MKK6(h) (human) (P52564 whole entry): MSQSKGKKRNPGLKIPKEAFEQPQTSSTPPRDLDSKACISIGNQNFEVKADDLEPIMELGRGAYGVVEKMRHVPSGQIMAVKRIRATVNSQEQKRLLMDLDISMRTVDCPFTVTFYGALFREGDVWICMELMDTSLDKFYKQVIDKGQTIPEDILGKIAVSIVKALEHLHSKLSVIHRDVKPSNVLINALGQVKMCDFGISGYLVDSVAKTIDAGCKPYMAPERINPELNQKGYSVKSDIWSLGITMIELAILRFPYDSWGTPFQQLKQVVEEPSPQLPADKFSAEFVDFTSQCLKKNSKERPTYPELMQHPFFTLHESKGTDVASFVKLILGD
Chain of 6SK3β(h) (human) (P49841 whole entry): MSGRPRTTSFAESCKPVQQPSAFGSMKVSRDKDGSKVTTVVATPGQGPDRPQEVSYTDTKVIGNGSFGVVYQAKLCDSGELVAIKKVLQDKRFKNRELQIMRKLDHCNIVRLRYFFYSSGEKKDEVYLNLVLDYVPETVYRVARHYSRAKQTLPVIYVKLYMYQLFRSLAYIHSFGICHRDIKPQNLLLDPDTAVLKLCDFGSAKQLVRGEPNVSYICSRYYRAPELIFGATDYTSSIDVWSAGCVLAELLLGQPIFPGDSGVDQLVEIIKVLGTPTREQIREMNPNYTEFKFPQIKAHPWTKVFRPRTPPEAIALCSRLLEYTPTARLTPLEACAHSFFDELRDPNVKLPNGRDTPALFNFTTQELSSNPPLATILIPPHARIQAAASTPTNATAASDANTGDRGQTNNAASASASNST
Chain of MSK1(h) (human) (O75582 whole entry): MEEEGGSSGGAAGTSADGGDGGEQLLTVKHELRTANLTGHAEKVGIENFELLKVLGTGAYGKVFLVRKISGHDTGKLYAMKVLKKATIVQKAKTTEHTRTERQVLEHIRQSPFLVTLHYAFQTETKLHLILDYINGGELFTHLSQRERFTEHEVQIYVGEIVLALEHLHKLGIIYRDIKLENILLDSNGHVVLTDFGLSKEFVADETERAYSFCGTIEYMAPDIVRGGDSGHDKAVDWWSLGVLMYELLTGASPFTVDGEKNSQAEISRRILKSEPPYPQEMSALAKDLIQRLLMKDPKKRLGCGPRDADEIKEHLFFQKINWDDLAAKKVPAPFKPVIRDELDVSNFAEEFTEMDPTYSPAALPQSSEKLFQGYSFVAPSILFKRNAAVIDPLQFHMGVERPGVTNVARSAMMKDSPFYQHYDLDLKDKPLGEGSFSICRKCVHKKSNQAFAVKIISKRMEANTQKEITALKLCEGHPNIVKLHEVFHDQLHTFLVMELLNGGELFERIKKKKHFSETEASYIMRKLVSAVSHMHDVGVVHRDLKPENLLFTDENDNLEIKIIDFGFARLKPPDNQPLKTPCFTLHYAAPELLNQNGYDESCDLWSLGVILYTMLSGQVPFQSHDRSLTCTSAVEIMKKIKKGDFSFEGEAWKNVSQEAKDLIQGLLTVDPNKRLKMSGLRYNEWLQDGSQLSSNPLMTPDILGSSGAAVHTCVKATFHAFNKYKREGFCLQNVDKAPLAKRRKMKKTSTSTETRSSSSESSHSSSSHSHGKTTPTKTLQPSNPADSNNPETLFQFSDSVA
Chain of Rsk3(h) (human) (Q15349 whole entry): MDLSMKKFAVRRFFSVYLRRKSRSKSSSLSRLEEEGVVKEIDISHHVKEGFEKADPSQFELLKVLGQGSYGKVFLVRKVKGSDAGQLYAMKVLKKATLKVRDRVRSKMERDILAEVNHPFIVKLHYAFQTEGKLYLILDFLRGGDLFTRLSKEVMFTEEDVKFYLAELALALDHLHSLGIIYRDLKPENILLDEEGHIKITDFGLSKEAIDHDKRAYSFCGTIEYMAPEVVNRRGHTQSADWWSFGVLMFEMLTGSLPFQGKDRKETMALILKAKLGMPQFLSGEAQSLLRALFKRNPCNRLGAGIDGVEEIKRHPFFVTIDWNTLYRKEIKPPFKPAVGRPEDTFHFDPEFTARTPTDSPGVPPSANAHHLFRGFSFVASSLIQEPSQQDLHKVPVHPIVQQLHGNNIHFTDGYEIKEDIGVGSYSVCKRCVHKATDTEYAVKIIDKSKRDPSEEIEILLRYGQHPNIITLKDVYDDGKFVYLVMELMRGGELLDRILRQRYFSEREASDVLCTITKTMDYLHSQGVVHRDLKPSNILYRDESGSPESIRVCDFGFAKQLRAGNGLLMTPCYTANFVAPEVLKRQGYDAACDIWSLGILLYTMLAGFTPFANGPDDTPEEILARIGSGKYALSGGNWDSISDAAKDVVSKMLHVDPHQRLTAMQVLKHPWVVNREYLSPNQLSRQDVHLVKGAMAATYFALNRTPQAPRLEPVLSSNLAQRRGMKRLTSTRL
Chain of SGK(h) (human) (O00141 60-431 limits assumed): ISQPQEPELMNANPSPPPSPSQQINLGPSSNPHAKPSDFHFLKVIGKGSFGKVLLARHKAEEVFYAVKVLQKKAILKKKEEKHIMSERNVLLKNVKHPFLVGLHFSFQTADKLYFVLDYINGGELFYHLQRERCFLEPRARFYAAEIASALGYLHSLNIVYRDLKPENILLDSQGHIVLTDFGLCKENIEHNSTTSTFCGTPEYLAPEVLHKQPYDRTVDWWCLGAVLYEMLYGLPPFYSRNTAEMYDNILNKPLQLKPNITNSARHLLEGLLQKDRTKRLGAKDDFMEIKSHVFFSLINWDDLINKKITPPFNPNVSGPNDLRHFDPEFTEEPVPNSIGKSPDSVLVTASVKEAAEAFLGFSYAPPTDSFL
Chain of TLK2(h) (human) (Q86UE8 whole entry): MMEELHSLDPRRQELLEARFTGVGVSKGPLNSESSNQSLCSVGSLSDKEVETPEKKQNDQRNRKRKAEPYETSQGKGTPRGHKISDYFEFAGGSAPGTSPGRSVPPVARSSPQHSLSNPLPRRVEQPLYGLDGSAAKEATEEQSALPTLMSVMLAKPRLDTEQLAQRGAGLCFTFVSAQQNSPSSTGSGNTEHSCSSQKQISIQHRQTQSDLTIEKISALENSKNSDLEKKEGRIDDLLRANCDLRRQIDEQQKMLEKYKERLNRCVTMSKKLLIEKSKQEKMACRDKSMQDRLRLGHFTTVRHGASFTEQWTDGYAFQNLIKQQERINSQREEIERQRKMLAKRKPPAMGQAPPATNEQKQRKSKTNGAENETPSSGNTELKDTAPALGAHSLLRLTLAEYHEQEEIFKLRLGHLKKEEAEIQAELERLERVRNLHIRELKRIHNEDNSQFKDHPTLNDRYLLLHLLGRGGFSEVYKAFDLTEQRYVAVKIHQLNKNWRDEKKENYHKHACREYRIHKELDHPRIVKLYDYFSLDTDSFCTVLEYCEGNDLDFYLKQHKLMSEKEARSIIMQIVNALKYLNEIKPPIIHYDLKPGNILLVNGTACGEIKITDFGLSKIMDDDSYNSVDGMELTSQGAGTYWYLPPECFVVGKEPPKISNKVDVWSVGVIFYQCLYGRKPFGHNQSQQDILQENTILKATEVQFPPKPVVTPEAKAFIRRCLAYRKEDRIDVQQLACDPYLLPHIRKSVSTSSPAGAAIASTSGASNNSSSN

## MMI-0500 (peptide)
Flt3(D835Y)(h) (human)
  % activity, 100 µM: 65%
MSK1(h) (human)
  % activity, 100 µM: 8%
GSK3α(h) (human)
  % activity, 100 µM: 175%
Tec(h)activated (human)
  % activity, 100 µM: 33%
PAK4(h) (human)
  % activity, 100 µM: 86%
6SK3β(h) (human)
  % activity, 100 µM: 238%
MKK6(h) (human)
  % activity, 100 µM: 18%
PKBγ(h) (human)
  % activity, 100 µM: 20%
Met(Y1248D)(h) (human)
  % activity, 100 µM: 218%
TLK2(h) (human)
  % activity, 100 µM: 133%
Rsk3(h) (human)
  % activity, 100 µM: 23%
PKGη(h) (human)
  % activity, 100 µM: 45%
SGK(h) (human)
  % activity, 100 µM: 2%
cSRC(h) (human)
  % activity, 100 µM: 30%
Axl(h) (human)
  % activity, 100 µM: 12%
LKB1(h) (human)
  % activity, 100 µM: 51%
